Results: US20230303680A1 (UNIVERSIT T Z RICH, published 2023)
Values belong to the binder of their own block, whether it stands above or below them.

Key:
mouse IL-2 = molecular target: T1, mouse IL-2 (mouse, UniProt P04351 21-169); experiment: SPR (Table 1)
T1 sequence (looked up): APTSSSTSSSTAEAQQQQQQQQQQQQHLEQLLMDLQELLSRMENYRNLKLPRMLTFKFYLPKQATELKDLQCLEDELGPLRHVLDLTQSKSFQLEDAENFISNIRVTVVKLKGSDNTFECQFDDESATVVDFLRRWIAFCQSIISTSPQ

[1] = molecular target: T2, human interleukin-2 (recombinant human IL-2, teceleukin) (human, UniProt P60568 21-153); experiment: SPR, mAb immobilized, IL-2 injected
T2 construct: also called hIL-2; rhIL-2
Procedure: Chip surface was regenerated after every cycle using glycine buffer pH 1.5. Measurements were acquired at 20° C. and analysed on a Biacore T100 (GE Healthcare).

[2] = molecular target: T2, human interleukin-2 (recombinant human …); experiment: single-cycle surface plasmon resonance (SPR)
[3] = molecular target: T2, human interleukin-2 (recombinant human …); experiment: single-cycle SPR
[4] = molecular target: T2, human interleukin-2 (recombinant human …); experiment: SPR (Table 1)

T2 sequence (P60568 21-153 limits assumed): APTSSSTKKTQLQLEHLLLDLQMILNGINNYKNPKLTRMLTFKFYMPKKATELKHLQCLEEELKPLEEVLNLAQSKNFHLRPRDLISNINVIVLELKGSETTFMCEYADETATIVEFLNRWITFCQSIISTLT

B1: JES6-1 (anti-mouse IL-2 mAb) (antibody, V domains shown)
VH: EIQLQQSGPELRRPGSSVKLSCKASGYNITDYLIHWVRHRPEHGLEWIGWIDPEDGETRYAQKFQSKATLTADTSSNAAYMQLSSLTPEDTATYFCARSLDSTYIYPFAYWGQGTLVTVSS
VL: DIVMTQSPFSLAVSEGEMVTINCKSSQSLLSSGNQKNYLAWYQQKPGQSPKLLIYYASTGQSGVPDRFIGSGSGTDFTLTISDVQAEDLADYYCLQHYISPPTFGAGTKLELK
- Kd (mouse IL-2): 5.6 nM

B2: UFKA-20 (mouse anti-human IL-2 monoclonal antibody) (antibody, V domains shown)
VH: EVMLVESGGGLVKPGGSLKLSCAASGFSFSNYAMSWVRQTPERRLEWVALISGGGSYSYYPDSLKGRFTISRDSARNSLYLQMSSLRSEDTAMYYCARHMGYNDYLAWFAYWGQGTLVTVSS
VL: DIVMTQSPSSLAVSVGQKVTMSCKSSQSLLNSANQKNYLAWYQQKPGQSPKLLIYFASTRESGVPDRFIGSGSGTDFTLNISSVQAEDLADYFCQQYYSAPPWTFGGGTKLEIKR
notes: Full mouse heavy and light chains; also called UFKA-20-00; 1+6
- Kd [1]: 2.3 nM
- koff [1]: 0.000391 s⁻¹
- kon [1]: 257000 M⁻¹ s⁻¹
- Kd [2]: 0.788 nM

B5: F5111 (anti-human IL-2 mAb) (antibody, V domains shown)
VH: QLQLQESGPGLVKPSQTLSLTCTVSGGSISSGGYYWSWIRQHPGKGLEWIGYIYYSGSTYYNPSLKSRVTISVDTSKNQFSLKLSSVTAADTAVYYCARTPTVTGDWFDPWGRGTLVTVSS
VL: NFMLTQPHSVSESPGKTVTISCTRSSGSIASNYVQWYQQRPGSSPTTVIYEDNQRPSGVPDRFSGSIDSSSNSASLTISGLKTEDEADYYCQSYDSSNVVFGGGTKLTVL
- Kd [4]: 1.88 nM
- koff [4]: 0.00711 s⁻¹
- kon [4]: 3.78e+06 M⁻¹ s⁻¹

Continued, values first:

- Kd [3]: 64 nM
B3: UFKA-20 variant 2+9 (antibody, V domains shown)
VH: EVMLVESGGGLVKPGGSLKLSCAASGFSFSNYAMSWVRQTPERRLEWVALISGGGRYSYYPDSLKGRFTISRDSARNSLYLQMSSLRSEDTAMYYCARHMGKNDYLAWFAYWGQGTLVTVSS
VL: DIVMTQSPSSLAVSVGQKVTMSCKSSQSLLNSANQRNYLAWYQQKPGQSPKLLIYWASTRESGVPDRFIGSGSGTDFTLNISSVQAEDLADYFCQQYYSAPPWTFGGGTKLEIKR

- Kd [3]: 0.186 nM
B4: UFKA-20 variant 5+9 (antibody, V domains shown)
VH: EVMLVESGGGLVKPGGSLKLSCAASGFSFSNYAMSWVRQTPERRLEWVALISGGGRYSYYPDSLKGRFTISRDSARNSLYLQMSSLRSEDTAMYYCARHLGHNDYLAWFAYWGQGTLVTVSS
VL: DIVMTQSPSSLAVSVGQKVTMSCKSSQSLLNSANQRNYLAWYQQKPGQSPKLLIYWASTRESGVPDRFIGSGSGTDFTLNISSVQAEDLADYFCQQYYSAPPWTFGGGTKLEIKR
